Measurements: the DeepSol protein solubility set

Test: soluble on expression in E. coli; label from the status in PepcDB or PDB records

Question: Which “soluble on expression in E. coli” value does the source give for “MYMTGHSLGCYLAQIAAVEAYQKYPDFYNHVLRKVTTFSAPKVITSRTVWNAKNGFWDVGLESRKLAVSGKIKHYVVDNDNVVTPLIHNNRDIVTFTGNSRFKHRSRGYFESPMNDIPNFNIGKQATLDKHGYRDPKLDKVRFFKKQALPRSSSQPSAEPMENIASGKQVTQSSTAFGGDARRAVDGKVDGNYGHNSVTHTNFQSKPWWQVDLAKEETIRQINIYNRTDTAQDRLANFDVILLDSSGKEIE” here?
Answer: The value was “not soluble”.

Question: Which “soluble on expression in E. coli” value does the source give for “MHLDVLDLHNFYYRTPLGRVAQRAVRDQVQKLWPDAQGQTVAGFGFSVPLLRPYLEQARRLIALMPGPQGVMPWPVGMGNVSVLCEEGAWPLSTGMVDKLVMLHGLETSEHPSEVLSEAWRVLGPGGRALFIVPSRSGLWARRDGTPFGFGRPYSLNQLEAQLKRHDFTPERALAALFAPPLHQRFWLKTADFWETGGRRFAPWLVGGVLIVEASKQVYAPTRTGLKAAVSKPLRVLEGIPQPLPAPAGRTSDGSCGCPGGC” here?
Answer: The value was “not soluble”.

Question: With “MCMPTKKYTEKFKISLVYLYRKGTSKQTLEDFGVSSASLSRWIKWYDVTDVDLNEAANILQMYELKKQKDKLEAEVLELTKAIQLFNSDLNTVLEHHHHHH” as the sequence, how does the “soluble on expression in E. coli” value read?
Answer: The value was “soluble”.

Question: For “MAHHHHHHMKRAAKGEVVFDEDIRRLCDKGVNNLPGWSLAAAEVKAAVRNSTKHFLDAAAEEARNPTTTSAPEKLEGCYKSVHNARRGHAVELPDGVERTKTGTGMGMHEGRPEQSWSYKKADDAIEKNDGVQQFGAAPPVLMVLTLDKGWPYSWNRIQDLPKDVFVNCEVDRVWQTVKGDVTAWFSPHGGTDFTPKQRVLIGTPGIGKSMAAGSYLLYQLLHCDAKKLQVVVHRFGGGDAYVSDKITRAVTKYSDEDMCISELRRLRGYGRNVYIIYDVAKEGTPPPRHFAPTSGWGMIVVSFPKVTNYDEWEKQLHAARIIMNCPDESDVRAMCIWKEYNGQVEEEADYWKKVKDRMDKVGPILRFIFDN”, which “soluble on expression in E. coli” value is on record?
Answer: Its value is “not soluble”.

Question: For “MPRKAREYPEEGEFVVATVKRIHNYGAFLELDEYPGKEAFMHISEVASTWVRNIRDYLKEGQKVVAKVIRVDPRKGHIDLSLRRVTQQQRKAKLQEFKRAQKAENLLRLAAEKLGKDFEAAWREVWVPLEEEWGEVYAAFEDAAKDGIEVLKGHVPDEWLPVLKEIVENYVEVPTVTIDAEFEITVPKPNGVEIIKEALIRARDRANKEKDIEVKFTYQGAPRYRIDITAPDYYKAEEVLEDIAEEILRVIKQAGGEATLLRKEKRIRKVKKRKK”, which “soluble on expression in E. coli” value is on record?
Answer: The value was “soluble”.

Question: For “SSNQTPYIGSKISLISKLDIRYEGILYTVDTNDSTIALAKVRSFGTEKRPTANPVAARDDVYEYIIFKASDIKDLIVCDTPKMANIGGGLPYDPAIISVSSRSAPASDGAPAASAGSSRAGTPSRNSPLGQIIQNQRPGRGGYQQNFQANRGYNNYRGGFAGGYNNQRGHNNYGVPRVNHREKLKFESDFDFEKANEKFQEVLVDNLEKLNIEDKAEPEVEEKKDAAFYDKKTSFFDNISCESLEKAEGKTGRPDWKKERETNQETFGHNAVRSLNYRRGFGGRGRGGNRGYGGYNNGYQHQHQHRGGYNGGYRQNNGGYRRGGYAPRDNQGNTAAAAEQ”, which “soluble on expression in E. coli” value is on record?
Answer: The value was “not soluble”.

Question: Which “soluble on expression in E. coli” value does the source give for “MTVEWLAEQLKEHNIQLTETQKQQFQTYYRLLVEWNEKMNLTSITDEHDVYLKHFYDSIAPSFYFDFNQPISICDVGAGAGFPSIPLKIMFPQLKVTIVDSLNKRIQFLNHLASELQLQDVSFIHDRAETFGKGVYRESYDVVTARAVARLSVLSELCLPLVKKGGQFVALKSSKGEEELEEAKFAISVLGGNVTETHTFELPEDAGERQMFIIDKKRQTPKKYPRKPGTPNKTPLLEK” here?
Answer: The value was “not soluble”.

Question: Which “soluble on expression in E. coli” value does the source give for “MGSSHHHHHHSSGLVPRGSMAGVDPFTGNSAYRSAASKTMNIYFPKKEAVTFDQANPTQILGKLKELNGTAPEEKKLTEDDLILLEKILSLICNSSSEKPTVQQLQILWKAINCPEDIVFPALDILRLSIKHPSVNENFCNEKEGAQFSSHLINLLNPKGKPANQLLALRTFCNCFVGQAGQKLMMSQRESLMSHAIELKSGSNKNIHIALATLALNYSVCFHKDHNIEGKAQCLSLISTILEVVQDLEATFRLLVALGTLISDDSNAVQLAKSLGVDSQIKKYSSVSEPAKVSECCRFILNLL” here?
Answer: Its value is “soluble”.

Question: With “MIHCDPFSINCFWENVIKFLQYDHSMFKIAITSVPARVDVSDLDRSLAYFLSDIGYIPKINPSTDMNSIKNSVYFRLFKECFLMNGERFWTPEELMSYLGTSRSTLYRHLNKLKYMDLLEEVKDGKIKKYRIRSGDILKAWSWVEINVKMAMDNYRSNVEHIVDLIRSNSNSNLRPLEHHHHHH” as the sequence, how does the “soluble on expression in E. coli” value read?
Answer: Its value is “not soluble”.
